Measurements taken from the NTF2 design screens of Basanta et al. (2020).

Test: protease stability score; higher = more stable; yeast display proteolysis, trypsin and chymotrypsin;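 note: relative to predicted unfolded state with 0 unfolded-like and 1 meaning tenfold more protease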

Row | Sequence | protease stability score
1 | SEDEKDAEKMSERFLHMFITGNEELFRDLADPHTRLKVNGVHNHGREHVEILNKEFLTRLGVNYYEEHDVRYRVIDGVVFIDIVGHMNIDGQETEVTLHWRVLKVNGRWRITEVDIRRH | 1.64
2 | SEDEKDAHEAVKRMVHFSETGDWREIEELADPHYRIDWNGRTHIGREEFTEITKRLGINVIRHRHITIINGRIHVHGEVHFNGQSTEVEFIITKINGKWRLHEMIIR | 0.747
3 | SEDEKDARIAVKLLWEIFQTGDEDLFTKFIDPNTRSEINGREIHGREDVYRLMEELGIKVIRVHDVKTQGDKVHLTMEVTVNGRRHRVHFIFEKIDGRWIARHEKVE | 1.45
4 | SEDEKDVKDAFDIWYESHITGNEEYARKMADPDTLSIVNGVRIHGMETWMHFLLKHQKELGIDVYTTDIHHVEVFDGRVKVDLRMREIFNGRHLEFETEVISEKIDGRWHVRSIRIT | 1.36
5 | SEDEKEAKETQSIYSHAVQTGDEHHLKELADPNVRIEINGVEYVGWEQLKDMLERFKNVRIKVSVRRVHQIGDKIHLNTELEEDVDGVRRVIDVRVIIWKINGRWRFKTFESQ | 1.41
6 | SEDEKEDHELSRHVIETLKTGDWELLSELADPHVRLKVNGKTYIGRELFTETVRRLLDRFKNMTLKIEDIKTVDGRLEIHIFLIVGDKFFELIIIATKVDGRWFEEEMHVHHS | 0.915
7 | SEDEKEMKQALEHWLELLTTGNEEENEKLADPDVRLNFNGKEFHGWKLYREFLSRIKNATIRIREVRVVNGKVTVISELRIGDKVFEVQIHLKKVNGKWYVEEEHIH | 1.61
8 | SEDEKENREWKRLLIEAHMTGDEHFLSRQLDPNVLVIVNGQEKVGREEAERELKEWLDKVKGLRIRRFDTESEEFVDGRLHSNLKLDGIINGRRTELDIHVISVKIDGQWQIRQIFFV | 1.44
9 | SEDEKERDMIAELFVRSLVTGDEELIKDLIDPNVKLDIGDKSRHGRENFTRQILHFGVDHVDVTEMHVQGEKVNLRGNWNINGVDLDVINYVTKVNGKWLLTRVEIK | 1.14
10 | SEDEKFARHVVKLWEDNYKTGNFEELLHMMDPHVKIKVNGRELHGWEELEKILTEFHERFRNQKLDIKLRDLKIQGNYVHADMELTIHYNGQEHREQVHLVVRKVNGRWEIEKITFD | 0.813
11 | SEDEKFLQIALHLMMHWINTGDEDFLREMADPHVRLHDGDKEHHGWKVIEHLFHYYGVDHITVKRYTIIGDKVKTDGELRVGDKRFRILYETVKIDGRWHVHKIEIR | 1.43
12 | SEDEKFWEDISKIVLDLLRTGDWELSERYADPNVKVHLVIDGQELDLHGREHVVNLVRKLGADHVETEDHKFHYQGNKIRINIHGHLNINGKVQHVEFTEIWVKVDGRWYSQHHEIVFR | 1.55
13 | SEDEKHAHEFLEQFIRDWVTGNEESFELMLDPDMRLNINGRDFHGREEAVRHFSHRFKQLGVKHIELKEVDIDVFDGKVHSTYDGVERFNGQELRVRIEVEVLKINGQWYLHRVVVKIE | 2.27
14 | SEDEKHFREALEELHRALETGDWKRLDELLDPNTRLHINGVDLIGREMVSRFYRELVEHLGINHIELRVHHIRIIGDKVEMDSELIIDVGDKHIRIDQKLDAKKVDGRWISHVESHR | 2.05
15 | SEDEKHSEHAIHLIEHSMHTGDEKTLRDNIDPHVRVHINGRDVIGRELWMEILRRDLEELGVERVDFKTHHVEVFNGRMNIDGILTQGDKRVKVQIHYTKINGRWILEELIIR | 0.841
16 | SEDEKIAEHLMHEISRSTQTGDEEMSRRLMDPNVRIDINGKQIHGWETWQKEVERVDHSHSRFQLRDVRSQGNYLDARGEFHLDLHINGRTVHIVYDVTFIILKIDGRWFLHSIKVR | 0.519
17 | SEDEKIAHKVHRLMFESLRTGDEEFLRRMLDPNARFVVNGQDLVGMEFLDHTLREMRVREIRWRSSDVEIQGDKIINHSKVHSRFDQGEKETHVEVHIIIIYTKIDGQWHVKSVIIEYK | 1.12
18 | SEDEKIAQRLLDLLLESFITGDEQMDRELLDPNVKMEVGDKELHGREEALEWFTRVAKRVDHMRFTLTHMDIIDGRIIIQGRVEQFFNGRKVTTRYNLLVLKIDGRWRIEEIRYH | 1.42
19 | SEDEKIARDVIKLVLHAMRTGDEELFLKLADPNVRILFDGKELHGREEVIRFRERIDHFDIKRFDLRDMKIINGVMHVDVEIDGVLEVDGVRERRIEKVRWVVLKVDGRWRTHSIEIV | 2.69
20 | SEDEKIASEIAEYVERAFRTGNEEEWERYADPHVRTDVNGQDLIGRRTLEEMFHRIDHLHDSRMEIHDVKLVNGRIISDVRLHLDSHYNGVRFEWEHEVRIQVDKINGRWRVKFIEIR | 0.428
21 | SEDEKIHREMSKIMLEDLFTGDWKSLRDLVDPNVRIIVDGREFHGREYYSRELIEELLKFKNARFDIEHVELRIYDGRLRTLIHMRVNIDGVEHWVIVEVDFTKIDGRWYVEEIRVEVR | 1.33
22 | SEDEKIMEEASRLFMHLFLTGDEETLMRLADPNTRIVFNGQDHHGREEWTKVLRDLGIKHSHIEHVNLRTQGDKVDLNVHVNVHIDGRTRRYLIIVHATKINGRWEIKEIQVHEH | 0.989
23 | SEDEKISEEALRRWVHHNRTGNEQDYVRMADPDTKIEIGDKEFHGREEFVKLARDYGFKHYHLKDNDVIGDKIRIDGIVEFNGQRWEMILYFVKYDGRWSIKSIHIK | 1.45
24 | SEDEKITKEATRIFLENLHTGDERTMDDNLDPNVLLIINGVELVGREFIVTWLKELRLKRQDIKSIDMRLINGVAHVFMDIHVEGNYNGRDRRSDEELRYIIRKIDGRWSIESVEIHIR | 1.22
25 | SEDEKKRDESLELILRAILTGDEDLLKTLADPHVMFDWNGKELHGMNVFIHWVRHMGVDHRNIESKDKRIQGDKVRLDMTSNEHAENHEHRYRVELIIKKIDGRWIIKEFIIR | 1.36

Row | Sequence | protease stability score
26 | SEDEKLAEDFFELLRHLIHTGDENTLREFADPRTRVQINGREIHGWDESARHIMHETLRFKNMRINLHLKDRRVIGEKMELDVKVQLHFNGQTEEFDFILYVEKVNGKWVIKSIHVH | 1.26
27 | SEDEKLAHLVTELMTHSDRTGDERILEHLLDPNTRVIINGVSYHGMEAYRHMVRHIRFHNWEIHDVDSVNGQVHVDSRAEGNIDGVRDILNTWIISDKYDGRWIISEIEII | 0.53
28 | SEDEKLDRDLHDLFRKLWETGDFDSLLKLADPTARFIYDFENHSEEEHGMHVYLKRLTERLRFFKGLQIEVDVIHVVNGVSHFELTMHIDGVRIKVEIEVITIDGRVREMRVRDN | 0.738
29 | SEDEKLFRLSIEIYLRVSRTGDEHMAHEYADPHVRLRIGDKEFHGREEFIKWVNELRVEELRLKEVRVIGDKAHLRTEVHTYIGDKEINYEMEIHQTKIDGKWFLREMKLK | 0.486
30 | SEDEKLMEHAFRQLLRDLETGDWHSFHHLADPTVKLDIDGREIHGRESATRVLEELWRKFGVTRVESELHSMHSQGDKLRVESKMNFNGVEYSVIIIMIKIDGRWLLHSENHK | 1.56
31 | SEDEKLVHHAANLILEALWTGDEDTLREMVDPNVRTHINGREFHGWEESIRIILHHLNRFKNVRWHLHDQRVYGEKSHNDVRTNVDGVTLEVILILIVVDGRIRSISIEIR | 2.68
32 | SEDEKMAERVLRLLYEDILTGDEHALKRLLDPDARLSQGDKQHHGREVLLEWMRTVWERVDHMEFELKDFRFYGNYIIIHGTLTERINGRKLEFEVILYVYKINGKWFLHSIEIR | 1.85
33 | SEDEKMANEMLEIMMRNLITGNWEELSRLADPHVRIVINGVELHGRETINNYLHHLRIKRVHLNVTHIESIDGKVKSIGLLREHGEFNGKETETHTKVILIIQKVNGVWIVKEIRDE | 1.4
34 | SEDEKMFKEMKDLLLEILRTGDEDSWSHLADPDYRMDINGRIDHGMEEASRSLTEFLRKLGIDHLDIKDSKVTLVNGRAIIILHEETKVNGRKFNLRIINIVSKVNGKWSIESFSMSIE | 1.29
35 | SEDEKMIEDASELHIDYFLTGDEESMEKLADPSVKLEQGDKDQHGREQHSKWYKELREELGIKHMRVDDVKFRLINGRLTLLIRGTLHVGDKSWDVHFILISEKIDGKWVIRNMIISYS | 1.32
36 | SEDEKMTEMALRLFMHTWRTGDEQVFRHLADPDYRLEVNGVEFIGWEQVTELFSRIVKRFDHMHIHLREFDDINGQADVRGTLILIQGDKEIRMETHIISKKFNGRWTHRRVHFH | 0.428
37 | SEDEKNHKIAMRILRRVIETGDERELEELADPDVRIVIGDKFHVGRDVWHEWAHRFDHTHHIEVKDHRHFDGRITLDTEVDVHIDGRRSRMRVIIIARKVDGVWFLHELRIH | 1.31
38 | SEDEKNSRKFLEDWIRALETGDEHRLEELLDPHVLVIVDGVHYWGMEIFLKERRRHGFKLKDVRLEHMTIQGDKVILHVQIEVHINGRDHHLESYIIIEKVNGRWHVSKLELR | 2.71
39 | SEDEKNVDEFMERMTRLTETGDEDNLRHLMDPNVYLHQGDKVHHGREDVVKAIREIIDNLGVTQVKAEVHSFEVIGDKMDLRGTLEFNGVRWRRHIDIHKVDGRWHLQFVHIE | 0.251
40 | SEDEKNVEEMSRRLSHVLKTGDEESFSRLADPNARHIYNGRILHGWENFVRFLRHLWEHARIHELHVHDFEYQGDFMHVDSRLNGDINGQQMIFTTHLYNIKINGRWFLTEVKIV | 0.429
41 | SEDEKQFNEFLKLFNHSLQTGDEDTLTDLMDPTVRSDINGREFHGREEMSRALNILIKLAGVDHTSIDLKRLEVVGDKAHSDVSLLLIQGDKIRTHEMKLDMYKIDGKWILTHLRFK | 1.66
42 | SEDEKQLEHAVKLFIESLRTGDEHSLENLVDPNVRMQINGVELHGRELFIHLFREWRFHSVHLRHLDLQGDKVHLDGKLDVRFDGRRYEVILRTHIEKIDGRWHLRYMYEE | 1.45
43 | SEDEKRAKEFDERFNENLLTGNFEKLLHLADPNAKVFYNGQENHGMHLFLKWMVELLKQIRVEDVELDDYKIYGEKIVLDVTIHTRFDGQETEWKTRIITTKVDGRWVLKTVEIR | 1.45
44 | SEDEKRLLDLAKEWIHNWLTGDEESMQKLADPSTRYEIGDKELHGMEEVNRSIKISLDELRVKHIDIERVKAINGVVTIHTRIDVEFNGKRMIIETIIRIDIFNGRIKQVWVEFR | 1.21
45 | SEDEKSIKVAIELIINSVRTGDERFIKELADPHVRLEIGNKRVHGREEFAKLLSEENRQMRIHIIIDDVKSVGDFVFIRGTIEIHIDGVEERREFEIFVWKFNGRWVIKEERIH | 1.43
46 | SEDEKTTKDVFREIKEILLTGDWRALERLLDPHVRFDINGQEIHGRESILEYWLEQVRRLGIDHIEIRLHHIDVQGDKIHLDVRIIYRYGDKEYREETKFVIIKIDGKWHLKEYHVD | 2.11
47 | SEDEKTWHKLMEDHIKDWITGNEEKLEENADPHARFELHVGDKRITDHGRDFIEHWVDRIKNLRIELHDFEIQGNKVHLDVRVNVNGVHEIVTIIVIVIDGKLHSLHIHVEIR | -0.08
48 | SEDEKVALEMLEWLSTARRTGDEHVMRELIDPHTRLHYGDKIYIGRDHVIELLLQLRVHIHHVELTHFESVGDKIKLHTEEDGHIDIDGRHHRVIIHTTMYARKFDGQWHTEEIRIH | 1.93
49 | SEDEKVVFQILRLWVDLLLTGDEEEMLHLADPNTRVEIGEFDDHGREAMEFMIRRFDVIEDIKIRDIRTIDGKVQIHGEVHSHFNGRRFTIHVEIIARKIDGRWKLTSMHFI | 2.08
50 | SEDEKVVKWASDVLLDYIRTGDWRSLEELIDPHARHDVNGVEIIGMEHILKHFMELRRRIDHIHLRVHHIRVFDGQIDLNGKLHVNINGREIELDTRVIALKVNGRWVNHIISIG | 1.44
